Data from patent US20180339042A1.

Key:
[1] = target: human GITR, membrane bound (human) (UniProt Q9Y5U5); assay: cell-based or functional assay
[2] = target: activated T cells (UniProt Q9Y5U5); assay: FACS binding, activated T cells; isotype control
activated T cells, sequence (Q9Y5U5 26-241): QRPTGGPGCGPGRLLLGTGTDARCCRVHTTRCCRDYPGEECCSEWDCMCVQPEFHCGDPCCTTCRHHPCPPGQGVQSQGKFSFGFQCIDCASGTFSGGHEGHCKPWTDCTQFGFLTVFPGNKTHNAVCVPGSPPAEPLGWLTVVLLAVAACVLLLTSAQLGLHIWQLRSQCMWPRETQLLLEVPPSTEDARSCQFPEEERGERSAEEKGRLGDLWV

human GITR, membrane bound (human), sequence (Q9Y5U5 26-241): as above

NFKB signaling (phospho-p65), CD4+ T cells, Emax (%) [1] [%] | NFKB signaling (phospho-p65), CD8+ T cells, Emax (%) [1] [%] | EC50 [2] [nM] | Substance
4 | 6 | – | hIgG1 Isotype Control (antibody)
– | – | 132 | unrelated hIgG1
– | – | 6.72 | unrelated hIgG2
